Changes are numbered by the printed parent chain.
Assays:
[1] = target: T1, SaCodY (Staphylococcus aureus, UniProt Q2FHI3 1-257); assay: BLI; 1 uM SaCodY; Ile + GTP (implied); BLI: 20 mM Tris-HCl pH 8, 150 mM NaCl, 2 mM MgCl2, 0.1% NP-40, 25 C; 2 mM GTP and/or 10 mM Ile/Leu/Val as stated; conditions: protein: recombinant; tags: His6 removed by TEV; N-terminal Gly-Ala remnant; chain copies: 4; label: 5'-biotin on one strand; 3-nt overhang at biotinylated 5' end
T1 sequence: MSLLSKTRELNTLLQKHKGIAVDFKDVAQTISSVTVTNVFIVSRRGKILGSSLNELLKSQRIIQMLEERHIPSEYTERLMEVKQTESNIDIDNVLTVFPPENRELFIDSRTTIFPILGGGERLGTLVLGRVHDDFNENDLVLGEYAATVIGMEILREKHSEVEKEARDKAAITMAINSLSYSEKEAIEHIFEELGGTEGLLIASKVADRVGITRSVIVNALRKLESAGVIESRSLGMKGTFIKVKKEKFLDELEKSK

[2] = target: T2, EfCodY (Enterococcus faecalis, UniProt Q834K5 1-260); assay: BLI; 10 mM Leu; BLI: 20 mM Tris-HCl pH 8, 150 mM NaCl, 2 mM MgCl2, 0.1% NP-40, 25 C; 2 mM GTP and/or 10 mM Ile/Leu/Val as stated; conditions: protein: recombinant; tags: His6 removed by TEV; N-terminal Gly-Ala remnant; chain copies: 4; label: 5'-biotin on one strand; 3-nt overhang at biotinylated 5' end
T2 sequence: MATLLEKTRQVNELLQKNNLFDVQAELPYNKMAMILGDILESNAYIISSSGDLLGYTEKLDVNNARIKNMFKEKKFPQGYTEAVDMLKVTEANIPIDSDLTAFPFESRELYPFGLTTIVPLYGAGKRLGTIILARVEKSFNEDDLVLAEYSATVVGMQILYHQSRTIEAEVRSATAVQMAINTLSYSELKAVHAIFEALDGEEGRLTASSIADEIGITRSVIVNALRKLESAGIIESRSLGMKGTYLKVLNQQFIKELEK

[3] = target: T1, SaCodY; assay: BLI; Ile + GTP (implied); BLI: 20 mM Tris-HCl pH 8, 150 mM NaCl, 2 mM MgCl2, 0.1% NP-40, 25 C; 2 mM GTP and/or 10 mM Ile/Leu/Val as stated; conditions: protein: recombinant; tags: His6 removed by TEV; N-terminal Gly-Ala remnant; chain copies: 4; label: 5'-biotin on one strand; 3-nt overhang at biotinylated 5' end
[4] = target: T1, SaCodY; assay: BLI; 1 uM protein; 10 mM Ile + 2 mM GTP; BLI: 20 mM Tris-HCl pH 8, 150 mM NaCl, 2 mM MgCl2, 0.1% NP-40, 25 C; 2 mM GTP and/or 10 mM Ile/Leu/Val as stated; conditions: protein: recombinant; tags: His6 removed by TEV; N-terminal Gly-Ala remnant; chain copies: 4; label: 5'-biotin on one strand; 3-nt overhang at biotinylated 5' end
[5] = target: T2, EfCodY; assay: BLI; 1 uM protein; 10 mM Leu; BLI: 20 mM Tris-HCl pH 8, 150 mM NaCl, 2 mM MgCl2, 0.1% NP-40, 25 C; 2 mM GTP and/or 10 mM Ile/Leu/Val as stated; conditions: protein: recombinant; tags: His6 removed by TEV; N-terminal Gly-Ala remnant; chain copies: 4; label: 5'-biotin on one strand; 3-nt overhang at biotinylated 5' end
[6] = target: EfCodY quadruple mutant (Enterococcus faecalis, UniProt Q834K5 1-260, Y186A;R238A;L240A;Y246A); assay: BLI; 8 uM protein, 10 mM Leu; BLI: 20 mM Tris-HCl pH 8, 150 mM NaCl, 2 mM MgCl2, 0.1% NP-40, 25 C; 2 mM GTP and/or 10 mM Ile/Leu/Val as stated; conditions: protein: recombinant; tags: His6 removed by TEV; N-terminal Gly-Ala remnant; chain copies: 2; label: 5'-biotin on one strand; 3-nt overhang at biotinylated 5' end
[7] = target: T2, EfCodY; assay: X-ray crystallography; Leu (bound in dimer 1 only); two dimers per duplex; BLI: 20 mM Tris-HCl pH 8, 150 mM NaCl, 2 mM MgCl2, 0.1% NP-40, 25 C; 2 mM GTP and/or 10 mM Ile/Leu/Val as stated; conditions: protein: recombinant; tags: His6 removed by TEV; N-terminal Gly-Ala remnant; chain copies: 4; blunt
[8] = target: T1, SaCodY; assay: X-ray crystallography; Ile + GTP; two dimers per duplex; BLI: 20 mM Tris-HCl pH 8, 150 mM NaCl, 2 mM MgCl2, 0.1% NP-40, 25 C; 2 mM GTP and/or 10 mM Ile/Leu/Val as stated; conditions: protein: recombinant; tags: His6 removed by TEV; N-terminal Gly-Ala remnant; chain copies: 4; blunt

B1: hutP2 single site (dsDNA)
DNA 1: AGTTCAGAATTTTTAGGAATTGAGTG
DNA 2: CACTCAATTCCTAAAAATTCTGAACT
binding result [1]: no binding

B2: hutP operator overlapping sites (dsDNA)
DNA 1: AGTTAATAGTTATCAGAATTTTTAGGAATTGAGTG
DNA 2: CACTCAATTCCTAAAAATTCTGATAACTATTAACT
binding result [2]: binds | Kd [3]: 598 nM

B3: consensus T>G (dsDNA)
DNA 1: CCGCCGGATAATTTGCAGCATTTGCAGCAAATTTAGCCG
DNA 2: CGGCTAAATTTGCTGCAAATGCTGCAAATTATCCGGCGG
binding result [4]: no binding | binding result [5]: no binding

B4: 24-nt sequence-optimized overlapping sites (consensus) (dsDNA)
DNA 1: B3 DNA 1 with G15T, C19A, G24T, C28A
DNA 2: B3 DNA 2 with G12T, C16A, G21T, C25A
binding result [6]: no binding

B5: 30-bp crystallization DNA (dsDNA)
DNA 1: GATAATTTTCAGAATTTTCAGAAAATTTAG
DNA 2: CTAAATTTTCTGAAAATTCTGAAAATTATC
binding result [7]: binds | binding result [8]: binds

B6: hutP1 single site (dsDNA)
DNA 1: AGTTAATAGTTATCAGAATTTTTAGG
DNA 2: CCTAAAAATTCTGATAACTATTAACT
Kd [3]: 1230 nM

Source: paper PMC10415144, “Structural insights into CodY activation and DNA recognition”
